Laboratory results from patent publication US20210253720A1 (KEROS THERAPEUTICS, published 2021).

T1: ALK2-FC (UniProt Q04771 21-123, limits assumed)
T1 construct: Only the embodiments speak of 'human ALK2'; not shown: Fc part
T1 sequence (looked up): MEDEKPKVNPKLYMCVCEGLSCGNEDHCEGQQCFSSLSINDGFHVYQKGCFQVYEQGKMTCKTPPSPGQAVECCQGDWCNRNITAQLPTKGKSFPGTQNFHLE


How the values were obtained:
ALK2-FC [1] = target: T1, ALK2-FC; assay: BLI, ForteBio Octet RED384; monovalent fAB-FH against ALK2-FC
[2] = target: ALK2 on C2C12-BRE-Luciferase cells
Chain of ALK2 on C2C12-BRE-Luciferase cells (P37172 whole entry): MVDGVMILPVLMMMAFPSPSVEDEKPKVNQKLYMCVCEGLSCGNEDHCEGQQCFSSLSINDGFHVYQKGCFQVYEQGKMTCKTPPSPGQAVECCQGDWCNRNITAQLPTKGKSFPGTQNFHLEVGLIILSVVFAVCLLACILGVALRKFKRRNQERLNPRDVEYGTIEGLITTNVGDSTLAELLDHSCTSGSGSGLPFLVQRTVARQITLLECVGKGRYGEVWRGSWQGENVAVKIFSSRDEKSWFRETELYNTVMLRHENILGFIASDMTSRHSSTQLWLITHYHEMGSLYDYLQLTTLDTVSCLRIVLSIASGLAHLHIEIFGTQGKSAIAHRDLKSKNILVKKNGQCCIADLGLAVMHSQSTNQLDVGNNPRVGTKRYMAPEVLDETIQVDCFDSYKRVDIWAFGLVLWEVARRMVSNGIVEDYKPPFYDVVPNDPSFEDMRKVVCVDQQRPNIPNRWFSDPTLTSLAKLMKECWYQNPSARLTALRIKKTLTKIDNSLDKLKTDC

[3] = target: ALK2 on C2C12-BRE-Luciferase cells; remark: listed apart in the source
ALK2-FC [4] = target: T1, ALK2-FC; assay: BLI, ForteBio Octet; fAB against ALK2-FC
ALK2-FC [5] = target: T1, ALK2-FC; assay: BLI, ForteBio Octet; fAB against ALK2-FC; fAB, ForteBio Octet against ALK2-FC

Row | Kd (ALK2-FC [1]) | koff (ALK2-FC [1]) | IC50, inhibition of BMP6 (40 ng/mL)-induced SMAD1 (BRE) luciferase signal in C2C12 cells; fit type not given [2] | IC50 (3 Param fit), inhibition of BMP6 (40 ng/mL)-induced SMAD1 (BRE) luciferase signal in C2C12 cells, ng/mL is the unit of the x axis [3] | IC50 (4 Param fit), inhibition of BMP6 (40 ng/mL)-induced SMAD1 (BRE) luciferase signal in C2C12 cells, ng/mL is the unit of the x axis [3] | Kd (ALK2-FC [4]) | Kd (ALK2-FC [5]) | Binder
1 | 14 nM | 0.0149 s⁻¹ | 1.27 µg/mL | – | – | – | – | Antibody 9, monovalent fAB in fAB-FH format (Fab, V domains shown, also called Anti-ALK2 fAB) VH: QVQLVQSGAEVKKPGSSVKVSCKASGGTFSTHAISWVRQAPGQGLEWMGLIQPRFGTANYAQKFQGRVTITADESTSTAYMELSSLRSEDTAVYYCARDYYGGMAYWGQGTLVTVSS VL: DIVLTQPPSVSGAPGQRVTISCSGSSSNIGQNYVSWYQQLPGTAPKLLIYDNSKRPSGVPDRFSGSKSGTSASLAITGLQAEDEADYYCSSWDLLSKSRVFGGGTKLTVLG
2 | – | – | – | 710 ng/mL | 754 ng/mL | – | – | Antibody 5, monovalent fAB in fAB-FH format (Fab, V domains shown) VH: EVQLLESGGGLVQPGGSLRLSCAASGFTFSSAAMHWVRQAPGKGLEWVSVISSDGGSTYYADSVKGRFTISRDNSKNTLYLQMNSLRAEDTAVYYCARAGFILGSLGVAWMDVWGQGTLVTVSS VL: DIELTQPPSVSVSPGQTASITCSGDSLGSKSVHWYQQKPGQAPVLVIYRDSKRPSGIPERFSGSNSGNTATLTISGTQAEDEADYYCQTYDWSHFGWVFGGGTKLTVLG
3 | 1.8 nM | 0.000759 s⁻¹ | – | 465 ng/mL | 462 ng/mL | – | – | Antibody 4, monovalent fAB in fAB-FH format (Fab, V domains shown, also called Anti-ALK2 fAB) VH: QVQLVQSGAEVKKPGSSVKVSCKASGGTFSSYAIHWVRQAPGQGLEWMGRIIPDFGTANYAQKFQGRVTITADESTSTAYMELSSLRSEDTAVYYCARGPTQAIHYFAYWGQGTLVTVSS VL: DIELTQPPSVSVSPGQTASITCSGDNLRKYSAHWYQQKPGQAPVLVIYYDNKRPSGIPERFSGSNSGNTATLTISGTQAEDEADYYCQVYASVHRMVFGGGTKLTVLG
4 | 2.9 nM | 0.00349 s⁻¹ | 1.16 µg/mL | – | – | – | – | Antibody 6, monovalent fAB in fAB-FH format (Fab, V domains shown, also called Anti-ALK2 fAB) VH: EVQLLESGGGLVQPGGSLRLSCAASGFTFGRFVMHWVRQAPGKGLEWVSVIGYSGSSTYYADSVKGRFTISRDNSKNTLYLQMNSLRAEDTAVYYCAREPGYYYPSGYYRGPGYWMDVWGQGTLVTVSS VL: DIQMTQSPSSLSASVGDRVTITCRASQGISGNWLTWYQQKPGKAPKLLIYDASNLQSGVPSRFSGSGSGTDFTLTISSLQPEDFATYYCHQSYRGPMTFGQGTKVEIKR
5 | 6.3 nM | 0.00576 s⁻¹ | 0.367 µg/mL | – | – | – | – | Antibody 8, monovalent fAB in fAB-FH format (Fab, V domains shown, also called Anti-ALK2 fAB) VH: EVQLLESGGGLVQPGGSLRLSCAASGFTFSDYAMHWVRQAPGKGLEWVSSIFYSGSNTYYADSVKGRFTISRDNSKNTLYLQMNSLRAEDTAVYYCARPKSYASGPFAYWGQGTLVTVSS VL: DIELTQPPSVSVSPGQTASITCSGDALRYYIAHWYQQKPGQAPVLVIYYNNNRPSGIPERFSGSNSGNTATLTISGTQAEDEADYYCQSYGPGSVVFGGGTKLTVLG
6 | 0.7 nM | 0.000357 s⁻¹ | – | 145 ng/mL | 221 ng/mL | 0.7 nM | – | Antibody 2, monovalent fAB in fAB-FH format (Fab, V domains shown, also called Anti-ALK2 fAB) VH: EVQLVESGGGLVKPGGSLRLSCAASGFTFSSHAMSWVRQAPGKGLEWVGRIKSKADSGTTDYAAPVKGRFTISRDDSKNTLYLQMNSLKTEDTAVYYCARDYGVAFAYWGQGTLVTVSS VL: DIELTQPPSVSVSPGQTASITCSGDSIPSFFASWYQQKPGQAPVLVIYRDSNRPSGIPERFSGSNSGNTATLTISGTQAEDEADYYCYVTAPWKSIWVFGGGTKLTVLG
7 | 4 nM | 0.00172 s⁻¹ | – | 1750 ng/mL | 1830 ng/mL | – | 4 nM | Antibody 1, monovalent fAB in fAB-FH format (Fab, V domains shown, also called Anti-ALK2 fAB) VH: QVQLVQSGAEVKKPGSSVKVSCKASGGTFSSYGVSWVRQAPGQGLEWMGGIIPHFGIANYAQKFQGRVTITADESTSTAYMELSSLRSEDTAVYYCAREIGSLDIWGQGTLVTVSS VL: DIVLTQPPSVSGAPGQRVTISCSGSSSNIGSNYVSWYQQLPGTAPKVLIYKNNHRPSGVPDRFSGSKSGTSASLAITGLQAEDEADYYCASWDHSDRFYVFGGGTKLTVLG
8 | 4.4 nM | 0.00149 s⁻¹ | – | 1460 ng/mL | 1490 ng/mL | 4.4 nM | – | Antibody 3, monovalent fAB in fAB-FH format (Fab, V domains shown, also called Anti-ALK2 fAB) VH: EVQLVESGGGLVKPGGSLRLSCAASGFTFNSSAMSWVRQAPGKGLEWVGRIKSKRDGYTTDYAAPVKGRFTISRDDSKNTLYLQMNSLKTEDTAVYYCARDYGGLKFDYWGQGTLVTVSS VL: DIELTQPPSVSVSPGQTASITCSGDNIGTKYAYWYQQKPGQAPVLVIYGDSDRPSGIPERFSGSNSGNTATLTISGTQAEDEADYYCYSADAQQMKAVFGGGTKLTVLG
